Data as given in the nanobody polyreactivity screen of Harvey et al. (2022).

Assay: yeast display, Sf9 membrane polyspecificity reagent, FACS + sequencing; frameworks hold sequencing errors
Summary of the method: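 Galactose-induced (36–48 hours) yeast carrying a synthetic nanobody display library were exposed to 10% biotinylated, detergent-solubilized Sf9 membrane reagent at 4 °C for 1 hour. FACS followed streptavidin microbead enrichment, using low and high (top ~1%) gates for expression (anti-HA) and reagent binding (streptavidin). Colony PCR, MiSeq 2 × 250 sequencing and CDR-length filtering followed. Labels for polyreactivity reflect the gate of origin.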

Row | Sequence | polyreactivity (PSR sort gate)
1 | QVQLVESGGGLVQAGGSLRLSCAASGRILDYYAMGWYRQAPGKERELVAAISRSGSDTYYADSVKGRFTISRDNAKNTVYLQMNSLKPEDTAVYYCAARWSYRSLARYNYWGQGTQVTVSS | low polyreactivity
2 | QVQLVESGGGLVQAGGSLRLSCAASGRILEGYSMGWYRQAPGKERELVAAISFSTTTTYYADSVKGRFTISRDNAKNTVYVQMNILKPEDTAVYYCAADSQQSDYDYWGQGTQVTVSS | high polyreactivity
3 | QVQLVESGGGLVQAGGSLRLSCAASGRILEVYAMGWYRQAPGKERELVAAIRWSDGNTYYADSVKGRFTISRDNAKNTVYLQMNSLKPEDTAVYYCAARTPGGYDWGQGTQVTVSS | high polyreactivity
4 | QVQLVESGGGLVQAGGSLRLSCAASGRILGAYAMGWYRQAPGKERELVASISSGGRTYYADSVKGRFTISRDNAKNTVYLQMNSLKPEDTAVYYCNAKVRRRKYDYWGQGTQVTVSS | high polyreactivity
5 | QVQLVESGGGLVQAGGSLRLSCAASGRILGFYAMGWDRQAPGKERELVARINWSGTRTYYADSVKGRFTISRDNAKNTVYLQMNSLKPEDTAVYYCAAERYPYVVTYSKLDYWGQGTQVTVSS | high polyreactivity
6 | QVQLVESGGGLVQAGGSLRLSCAASGRILGKNTMGWYRQAPGKEREFVAAISASGGRTYYADSVKGRFTISRDNAKYTVYLQMNSLKPEDTAVYYCAAARSRYSYATGFDYWGQGTQVTVSS | high polyreactivity
7 | QVQLVESGGGLVQAGGSLRLSCAASGRILGRKAMGWYRHAPGKEREYVAAISSGGNTYYADSVKGRFTISRDNAKNTVYLQMKSLKPEDTAVYYCNADPDTYVSTITHDSWGQGTQVTVSS | low polyreactivity
8 | QVQLVESGGGLVQAGGSLRLSCAASGRILGRYAMGWYRQAPGKERELVAAITSGGNTTYADSVKGRFTISRDNAKNTVYLQMNSLKPEDTAVYYCAAYSYTQLNLMDYWGQGSQVTVSS | low polyreactivity
9 | QVQLVESGGGLVQAGGSLRLSCAASGRILHEYAMGWYRQAPGKERELVAAITFSGTSTYYADSVKGRFTISRDNAKNTVYLQMNSLKPEDTAVYYCAADTYGGSRDYWGQGTQVTVSS | low polyreactivity
10 | QVQLVESGGGLVQAGGSLRLSCAASGRILHGYTMGWYRQAPGKERELVAAITSGGSTYYADSVKGRFTISRDNAKNTVYLQMNSLKPEDTAVYYCAAASYRHEEYYWGQGTQVTVSS | high polyreactivity
11 | QVQLVESGGGLVQAGGSLRLSCAASGRILIVNTMGWYRQAPGKERELVAAISSGGTTYYADSVKGRFTISRDNAKNTVYLQMNSLKPEDTAVYYCAAKRAGAEYDYWGQGTQVTVSS | high polyreactivity
12 | QVQLVESGGGLVQAGGSLRLSCAASGRILKYYAMGWYRQAPGKERELVAAITSDVNTYYADSVKGRFTISRDNAKNTVYLQMNSLKPEDTAVYYCNADADDYRDYQDYDYWGQGTQVTVSS | low polyreactivity
13 | QVQLVESGGGLVQAGGSLRLSCAASGRILLFYAMGWYRQAPGKERELVASIDYSGGSTTYADSVKGRFTISRDNAKNTVYLQMNRLKPEDTAVYYCNAEAWWYFWFDYWGQGTQVTVSS | low polyreactivity
14 | QVQLVESGGGLVQAGGSLRLSCAASGRILPRNAMGWYRQAPGKERELVAAISWDGGSTYYADSVKGRFTISRDNAKNTVYLPMIRLKPEDTAVYYCATDYPSLHRGMDYWGQGTQVTVSS | low polyreactivity
15 | QVQLVESGGGLVQAGGSLRLSCAASGRILPRNAMGWYRQAPGKERELVATIDYSVGSTYYADSVKGRFTISRDNAKNTVYLQMNSLKPEDTAVYYCNAQVLVRPIQGEYGYWGRGTQVTVSS | low polyreactivity
16 | QVQLVESGGGLVQAGGSLRLSCAASGRILPRNSMGWSRQAPGKERELVAGISSDGSTKYADSVKGRFTISRDNAKNTVYLQMNSLKPEETAVYYCAADVVYDPNLYGYWGQGTQVTVSS | low polyreactivity
17 | QVQLVESGGGLVQAGGSLRLSCAASGRILPWYAMGWYRQAPWKERELVAGISSNGGSTYYADSVKGRFTSSRDNPKNTVYLQMNSLKTEDTAVYYCAARVWYWRHYPSDYWGQGTQVTVSS | high polyreactivity
18 | QVQLVESGGGLVQAGGSLRLSCAASGRILQYNVMGWYRQAPGKERELVATISSGGTTNYADSVKGRFTISRDNAKNTVYLQMNSLKPEDTAVYYCAAGLPRKRVQYDYWGQGTQVTVSS | low polyreactivity
19 | QVQLVESGGGLVQAGGSLRLSCAASGRILRPNAMGWYRQAPGKEREMVAAISVSGGRTYYADSVKGRFTISRDNAKNTVYLQMNSLKPEDTAVYYCAAKYKRGYDYWGQGTQVTVSS | high polyreactivity
20 | QVQLVESGGGLVQAGGSLRLSCAASGRILRTYAMGWYRQPPGKETELVAAITWSGASTYYADSVKGRFTISRDNAMNTVYLQMNSLKPEDTAVYYCNALSPGYRIYDYWGQGTQETVSS | high polyreactivity
21 | QVQLVESGGGLVQAGGSLRLSCAASGRILSSYAMGWYRKAPGKERELVAVISSGGNTYYADSVKGRFTISRDNAKNTVYLQMNSLKPEDTAVYYCAAVRHRQTYTKYNYWGQGTKVTVSS | high polyreactivity
22 | QVQLVESGGGLVQAGGSLRLSCAASGRILSWYAMGWYRQAPGKVRELVAAIDSGGRTNYADSVKGRFTISRDNAKNTVYLQMNSLKPEDTAVYYCAKEGYWPRYWERYDYWGQGTQVTLSS | low polyreactivity

Row | Sequence | polyreactivity (PSR sort gate)
23 | QVQLVESGGGLVQAGGSLRLSCAASGRILSYYAMGWYRQAPGKERELVAAITRGGSTYYADSVKGRFTISRDNAKNTVYLQMNSLKPEDTAVYYCAARKKTTYRDWGRHDYWGQGTQVTVSS | high polyreactivity
24 | QVQLVESGGGLVQAGGSLRLSCAASGRILSYYAMGWYRQAPGKETELVATISASGGSTYYADSVKGRFTISRDNAKNTVYLQMNSLKPEDTAVYYCAAARVPAYYLRYLYRTTYDYWGQGTQVTVSS | high polyreactivity
25 | QVQLVESGGGLVQAGGSLRLSCAASGRILTNYVMGWYRQAPGKERELVAAITDSGGITYADSVKGRFTISRDNAKNTVYLQMNSLKPEDTAVYYCAAVRFFLYYFDFSAYDYWGQGTQVTVSS | low polyreactivity
26 | QVQLVESGGGLVQAGGSLRLSCAASGRILTSNAMGWYRQAPGKERELVAAITYSGDSTYYADSVKGRFTISRDTAKNTVYLQMNSLKPEDTEVYYCAADVLKHFYSFGDERGFPFDYWGQGTQVTVSS | low polyreactivity
27 | QVQLVESGGGLVQAGGSLRLSCAASGRILTTYAMGWYRQAPGKERELVAAITTIGGRTYYADSVKGRFTISRDNAKNTVYLQMNSLKPEDTAVYYCAADVYYEYDYWGQGTQVTVSS | low polyreactivity
28 | QVQLVESGGGLVQAGGSLRLSCAASGRILTYYAMGWYRQAPGKERELVASISSNGGTYYADSVKGRFTISRDNAKNTVYLQMNSLKPEDTAVYYCNAKRVARYQYGASYNYWGQGTQVTVSS | high polyreactivity
29 | QVQLVESGGGLVQAGGSLRLSCAASGRILVRYAMGWYRQAPGKERELVAAISSSGSSTYYADSVKGRFTISRYNAKNTVYLQMNSLKPEDTAVYYCAADWEYVFYEYGYWGQGTQVTVSS | low polyreactivity
30 | QVQLVESGGGLVQAGGSLRLSCAASGRILVSYARGWYRQAPGKERELVAGITSGGDSTYYADSVKGRFTISRDNAKNTVYLQMNSLKPADTAVYSCAADRYGYRGRKNVRERYNYWGQGTQVTVSS | high polyreactivity
31 | QVQLVESGGGLVQAGGSLRLSCAASGRILVVNAMGWYRQAPGKERELVAAISTTGGRTYYADSVKGRFTISRDNAKNTDYLQMISLKPEDTAVYYCAKDDGRFGRTHEHDYWGHGTQVTVSS | high polyreactivity
32 | QVQLVESGGGLVQAGGSLRLSCAASGRILVVNAMGWYRQAPRKERELVAAISTTGGRTYYADSVKGRFTISRDNAKNTVYLQMKSLKPEDTAVYYCSKDDGRFGRTHEHDYWGHGTQVTVSS | high polyreactivity
33 | QVQLVESGGGLVQAGGSLRLSCAASGRILWTYAMGWYRQAPGKERELVADISRTGSTNYADSVKGRFTISRDNAKNTVYLQMNSLKPEDTAVYYCNADYDRSRVYYSVELYDYWGQGTQVTVSS | low polyreactivity
34 | QVQLVESGGGLVQAGGSLRLSCAASGRILWYNAMGWYRQAPGKERELVAAINRGVSTNYADSVKGRFTISRDNAKNTVYLQMNSLKPEDTEVYYCAAVHDRLWYRSAYDYWRQGTQVTVSS | low polyreactivity
35 | QVQLVESGGGLVQAGGSLRLSCAASGRILWYNAMGWYRQAPGKERELVAAITSDGSTDYADSVKGRFTISRDNAKNTVYLQMNSLKPEDTAVYYCAKLYIRQYPTWYRYYYWGQGTQVTVSS | high polyreactivity
36 | QVQLVESGGGLVQAGGSLRLSCAASGRILYLYTMGWYRQAPGKERELVAAISRGGSTYYADSVKGRFTISRDNAKNTVYLQMNSLKPEDTAVYSCAADARGYQFNYWGQGTQVTVSS | low polyreactivity
37 | QVQLVESGGGLVQAGGSLRLSCAASGRILYPYAMGWYRQAPGKERELVAAITFIGGTTYYADSVKGRFTLSRDNAKNTLYLQRNSLKQEDTAVYYCSTAGPYGSRNDYWGQGTQVTVSS | high polyreactivity
38 | QVQLVESGGGLVQAGGSLRLSCAASGRILYQYDMGWYRQAPGKERELVASISRSGGRTYYADSVKGRFTISRDNAKNTVYLQMNSLNPEDTAVYYCAAELTYFGYPIDFDSWGQGTQVSVSS | low polyreactivity
39 | QVQLVESGGGLVQAGGSLRLSCAASGRILYRYVMGWYRQAPGKERELVAGISWSGGSTYYADSVKGRFTISRDNAKNTVYLQMNSLNPEDTAVYYCNKYIGALGRWGYDYWGQGTQVTVSS | low polyreactivity
40 | QVQLVESGGGLVQAGGSLRLSCAASGRILYSYAMGWYRQAPGKERELVAAISSTGSTYYADSVKGRFTISRDNAKNTVYLQMNSLKPEDTAVYYCAATFFPYQVHHYYYWGQGTQVTVSS | low polyreactivity
41 | QVQLVESGGGLVQAGGSLRLSCAASGRILYVYVMGWYRQGPGKASELVAAISRRGGGTSYADSVKGLFTISRDNAKNTVYLQLNSLKPEDTTVYYCAASSTEFPTDYLAIDDYWGQGTQVTVSS | low polyreactivity
42 | QVQLVESGGGLVQAGGSLRLSCAASGRILYYYAMGWYRQAPGKERELVAAINSSGGSTYYADSVKGRFTISRDNAKNTVYLQMNSLKPEDTAVYYCAALRGIVLWYPPSYFRYDYWGQGTQVTVSS | high polyreactivity
43 | QVQLVESGGGLVQAGGSLRLSCAASGRILYYYAMGWYRQAPGKERELVAAINSSGGSTYYADSVKGRFTISRDNAKNTVYLQMNSLKPEDTAVYYCAALRGNVLWYPPSYFRYDYWGQGTQVTVSS | high polyreactivity
